Substitutions are numbered along the chain they refer to.
Tests used:
Experiment in all cases: EMSA; QCM; dark state; EC50 similar to wtPZ; EMSA: 5% polyacrylamide gel, 25 C, dark or blue light 5 W/m2; QCM: 27 MHz, QCM buffer, 25 C; buffer, salt and pH not given (earlier papers cited); EC50 values (nM, per monomer) only in figures
Settings in all cases: protein: recombinant; chain copies: 2; label: Alexa Fluor647 (EMSA); biotin (QCM); blunt; self-complementary palindrome, 2 copies
[1] = molecular target: T1, PZ Q217A (Vaucheria frigida? (VfAUREO1), UniProt A8QW55 113-348, C162S;C182S;Q217A)
T1 sequence: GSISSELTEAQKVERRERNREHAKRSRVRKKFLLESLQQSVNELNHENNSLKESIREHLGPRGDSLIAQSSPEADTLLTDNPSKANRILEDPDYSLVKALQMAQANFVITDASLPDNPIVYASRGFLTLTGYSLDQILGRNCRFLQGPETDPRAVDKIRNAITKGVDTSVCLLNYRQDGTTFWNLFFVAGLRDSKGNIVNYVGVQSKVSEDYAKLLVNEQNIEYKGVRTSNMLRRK

[2] = molecular target: T2, PZ Q216A (Vaucheria frigida? (VfAUREO1), UniProt A8QW55 113-348, C162S;C182S;Q216A)
T2 sequence: T1 sequence with Q104A, A105Q

[3] = molecular target: T3, PZ L212A (Vaucheria frigida? (VfAUREO1), UniProt A8QW55 113-348, C162S;C182S;L212A)
T3 sequence: T1 sequence with L100A, A105Q

[4] = molecular target: T4, PZ N218A (Vaucheria frigida? (VfAUREO1), UniProt A8QW55 113-348, C162S;C182S;N218A)
T4 sequence: T1 sequence with A105Q, N106A

Measured: binding result

B1: dsApo (dsDNA)
DNA 1: GCTGTCTGACGTCAGACAGC
DNA 2: GCTGTCTGACGTCAGACAGC
binds: all assays above
